This note sets out measurements from a protein production outcome set (Wang et al. 2014).

The data set can be described thus: label from the status in PepcDB records.
Take “MAVLVTGATGFIAQWVLDCLLKENYQVIGTVRSQEKGDKLHKQFGSPSKLSFEIVKDISDTEAFEPLFKKRGKEIDIVLHMASPCHFNTSDYEKDLLIPALNGTKGVLNAIKKYGDVKKVVVTSSYAAITDMVNSADGSLVFTEKDWNPATWERCQTDAVNAYCASKKFAEQAAWEFSKETGVSLTTINPVFVFGPQKFDEDVTSQLNTSNEIINGLIHSKPGDKLEPDYHSAYVDVRDVARAHLVAFQKDTTGERLGLSNGAFNCQSILDILNEKFPQLDITKGPEPGMGDTKPGAVFDNRHSKEVLAFPFISLEQCVYDTVAQVLKKEGRLLEHHHHHH”: the protein production result was “not failed”.

Regarding “TNWASGEDDHVVARAEYDFVAVSDEEISFRAGDMLNLALKEQQPKVRGWLLASLDGQTTGLIPANYVKILGKRRGRKTIE”, the protein production entry was “not failed”.

“MYESANVSDDADRTAFRRAEKKYKLYYEQDSKFSRKKKLPKPIDLSELLDFNLISQNFNNDGVLPDGIRVSKVDSSPVFCIDNRPGFYFIPDALSLKEQCKWIKESLTSFPQPPNRTNHNAIYGPIDDLFDSAKENKVLVQDDLTNNKWKFYEEVDIEKATRSSCKSVSASVLLRKLRWSTLGLQFDWSKRNYDVSLPHNNIPDALCQLAKTHAAIAMPDGEEFRPEGAIVNYFGIGDTLGGHLDDMEADWSKPIVSMSLGCKAIFLLGGKSKDDPPHAMYLRSGDVVLMAGEARECFHGIPRIFTGEENADIGALESELSHESGHFFAEYIKTSRININIRQVF”: the protein production result is listed as “not failed”.

Turning to “MDGTVTPSPITTAMPPVSALDAGTPTLPPEAPLAMPEQNLREGSLQVRHQRTSPPGIGVRRFYLIGGTFATTAIAVWVMLSVLWPDGISVLEGCLLGLFVLLFAWIAMSFASAVAGFVTVVARAGRKLGIDPEQPLPTLRSRTALLMPTYNEDPRRLLAGLQAIYESVAETGQLEHFDFFVLSDTTREHIGRAEELVYNALCDRVGGHGRIFYRRRADNAARKAGNVADWVRRFGGSYPQMLILDADSVMTGDTIVRLVAGMENNPDVGLIQTLPAVVNGQTLFARMQQFGGRVYGPIIAFGVAWWHGAESNYWGHNAIIRTQAFADHAGLPSLRGRKPFGGHVLSHDFVEAALMRRGGWAMHMVPYLQGSYEEGPPTLTDLLIRDRRWCQGNLQHAKVVGAKGLHWISRMHMLIGIGHYFTAPMWGLLMLIGIGIPLAGGDIDLAGDLPFSPARYWHGSSQGNAIWIFVCTMFVLLAPKLLGYIALLLNPRELRACGGAFRAAVSILLETVLAALMAPVVMYLQSRGVFEVLAGKDSGWDAQVRDDGKLSWPALLRSYGGLTVFGLFMGAVAYAVSPALAAWMGPVIVGMALSIPVVALTSLRRTGMALRRAGIFCIPEELDPPKVLVRASELRRAAALEPSLI”, the protein production result is “failed”.

With “MHSNSWMSCKAVDNAEKEALLLQLQADADGPRRRCEIRERSLGQAVMLALLSLLLVLLGGWLASLPSAWQLRSAQLWFWLPGALMLGAGLVGLAAAEALRRRHGQQVLALTPDTLQFANAPDPTPWVCFDGFELEQRYLSLGLVFSVIAGSRAPALAPACFKSLAAPHAWPVAAGMRVRLWLFNPMLDGQRLDFQALTDLLYAYLNAAQARSTLGQLFPEVQRVGATQ”, the protein production entry is listed as “failed”.

Turning to “MGHFDTPSLSRDAALLPDTGEPGFGVYVHWPFCAAKCPYCDFNSHVRHQPVDQERFAAAFLKEMAAVRAMSGPKTVTSIFLGGGTPSLMKPETVSAILDGIARHWHVPAGIEITMEANPSSVEAERFRGYRAAGVNRVSLGVQALNDRDLKFLGRLHDVADALKAIRLAREIFPRMSFDLIYARPDQTVDEWEKELKEAISYAVDHLSLYQLTIEEGTPFFGLHKSGKLIVPDGEQSALLYEATQEITAREGMPAYEVSNHARPGAESRHNLTYWRYGDYAGIGPGAHGRLTRGHEKLATATERKPEAWLEMVERDGHGILDEERLGFEEQSDELLLMGLRLREGVDLARWQQLSGRELDPKREEFLLEHKFIERIGNSRLRCTSAGMLILDSVVADLAC”, the protein production result was “failed”.

Take “MFKPQGLYDYICQQWQEEILPSLCDYIKIPNKSPHFDAKWEEHGYMEQAVNHIANWCKSHAPKGMTLEIVRLKNRTPLLFMEIPGQIDDTVLLYGHLDKQPEMSGWSDDLHPWKPVLKNGLLYGRGGADDGYSAYASLTAIRALEQQGLPYPRCILIIEACEESGSYDLPFYIELLKERIGKPSLVICLDSGAGNYEQLWMTTSLRGNLVGKLTVELINEGVHSGSASGIVADSFRVARQLISRIEDENTGEIKLPQLYCDIPDERIKQAKQCAEILGEQVYSEFPWIDSAKPVIQDKQQLILNRTWRPALTVTGADGFPAIADAGNVMRPVTSLKLSMRLPPLVDPEAASVAMEKALTQNPPYNAKVDFKIQNGGSKGWNAPLLSDWLAKAASEASMTYYDKPAAYMGEGGTIPFMSMLGEQFPKAQFMITGVLGPHSNAHGPNEFLHLDMVKKLTSCVSYVLYSFSQKK”: the protein production entry was “not failed”.

For the sequence “MLSKILYADSGTSQTQEMLKAMMDFPAVQKASITILHVVPPQITTEAFTEKWAEGGKILADLLEDVAIEPSKVSTVLRQGDPKGVVCDVANEIDADLIIMGSRGLKRLEAILENSVSQYVFQLTNHPMLLVKDDIYVKRIKRVMVALDKSAAAEYALELALELLRDYPEGELILARVNPDLKPDLLPLSRQEIEENPVLAPAIAKAKRLGIAYRCTVTGGKPGEKLCELAEDYNADLMLLGSPDRRPSIAKSLPDLDRLLGTSLSDYIRVNAPCPVLLTRKEGI”, the protein production entry is listed as “failed”.

Regarding “HSAIVILDSRGNIQRFNRLCEDYTGLKEHDVIGQSVFKLFMSRREAAASRRNNRVFFRSGNAYEVELWIPTRKGQRLFLFRNKFVHSGSGKNEIFLICSGTD”, the protein production result is “failed”.

In the case of “MLKTVHQKAGRHTRPVRAWLKLLWQRIDEDNMTTLAGNLAYVSLLSLVPLIAVVFALFAAFPMFSDVSIQLRHFIFANFMPATGDVIQRYIEQFVANSNKMTAVGACGLIVTALLLMYAIDSALNTIWRSKRTRPKVYSFAVYWMILTLGPLLAGASLAISSYLLSLRWASDLNTVIDNVLRILPLLLSWISFWLLYSIVPTTRVPNRDALVGAFVAALLFEAGKKGFALYITMFPSYQLIYGVLAVIPILFVWVYWTWCIVLLGAEITVTLGEYRKLKQAAEQEEADQP”, the protein production result was “failed”.

On to “EEKPCGFPHVENGRIAQYYYTFKSFYFPMSIDKKLSFFCLAGYTTESGRQEEQTTCTTEGWSPEPRCFKKCTKPDLSNGYISDVK”, for which the protein production result is listed as “failed”.

In the case of “LRESEARFRMMADTSPIMLWVADQDKKMTFVNQSWLEFRGATLAEESGNGYLEGIHPDDKGHYLGVYSQAFGDRRRFELEYRYRRVDQQYRWIVNVGVPRYLEDGKFMGYVGSCLDITDRKQAQDILQKKLNQILLMRKISQEIRRSLQPTLIFQTAARQVGNVFAVSRCLIHNYSEATTLQVPVVAEYLGGQFTSLLAGEIAVEQAYDPTIIQGDRAMAVVDLDQDLNSTHTKAFYQRFQVKSFLAVRTSYQGKANGIIALHQCDRQRVWTADEIELLEAIAEQMGIALAQAALLEKERERRRELAQKNLELEKATWAAEAANRAKGEFLAMMSHEIRTPMNGVIGMT”, the protein production entry is recorded as “failed”.

“MSRQPLSREDTAILVPALNEALRIREVVTDALTYCSHVIVIDDGSDDGTAECIAGMPVTLIRHPQRMGKGAALRSGFAQAQRLGMRAVMTMDGDGQHKAADFPRLLAAANRHPGCVIIGARMRKRATQPTIRRIGNDFGDWGIAWGCGFRLIDSQSGQRLYPASVFTLPNVPGEGFVFEAQLLISAARQAGARVVAVPIETRYAGTSPGTFRKSHFRLVRDLWNITSHVVKQVWAYGHVWREYRRVRANPVIVDDPDGEFATVPAVTKSNHSSLEHHHHHH”: the protein production result is reported as “failed”.

As for “MKSLYQMNHIGHPFMYPKMDITKMNKTNNQNIPNKAHNPNNSSNMNTTKKSYGTSLNYIKKENSSKNSIYNNYEYLDASHLEMLDLNKNIKNILPKPMKPSLDLESLCKETTSTMKKSKMHCMKSGENQNKNVKHFYEMGTPQIIGTYIQPLHHNTNSFNQNNFPKNHMFPLLPSSPFFQPPNFRTNLTQASSTFIPLPHANKSTNIYGMPSYLIPENKPQNLTVTVVPNKDKDSIEKEAKHLKALLDSSSKGIVNSTPDYQKIQPSTLSNYNDKESDFSFGKNDNYEHAEYSEQNCNDENDTENNYNSFVNEFYDPHNSISYNNVNEFLKNSNQKNQQHAFRLESNEEVARKVHKEFTYPKGTSLNKINILNQNYKEEGEQQQENETKNNMNMQERDEERQTMKKDSSIPKRTQLSKKKEHNNNNIVLKKHEPSTCFKNPKTYINIRLGKPKKLYITNSSDPIDKKLSEWHNTHNSQIGWKKYRRGVYTFGKTEVILSLVHDKIIVKKINGKHIKDNLLTVEKFVSLNELYEIQQEENDNMLKKRGVKFFNF”, the protein production entry was “failed”.

Take “MALRSLVLFAALALVGCSSSPTADLVLTNGTVATLDDDHEQVEALAAADDTLLAVGSADAIDAYVGGDTRVIDLQGRLAVPGFIEGHGHYMGMGQAQMQLDLLGTSSWGRVVAKVDSSADETASGAWVEGRGWHQEKWTSTPERMVRGFPTNARLNEAAPDTPVYLTHASGHAAIANDAALEAAGIGPNTPDPEGGTIVRDAQERVTGVLLETAAGLVQEALDASRSGMSAADRRARRERQVRLAAEEALANGVTSFQDQGASFETIRLYREMAERGALDIRMYAMVAQGEVTPETQERLAEIRTVGAADQHLTVRAIGEVTVDGALGSRSAWMLEPYDDAPNDTGINVTPMERVREIAEIGLDEDYQIAVHAIGDRANRETLDLYASLFEAADGRGAERRWRVEHAQHLHPDDISRFADLGVMASMQAIHACSDAPYNYQRLGAQRVDQGAYLWNTLWADGAVVGNGTDVPVEKIDPLASLHCTATRQVPGTDTTFTPDETLTRRRALQSYTINNARMAFEEDVKGTLTPGKLADVTVLSENILTGPPERLREATVDYTIVGGEVAYANE”: the protein production result is given as “failed”.

Take “MYGIQTSASLPLTRPQALETQAAAPQSDAPDASAGQTRAAPQGSAAPALAAARAKADELGQAAREVRASVERQTAYETRLAAQRSAAAFSGGEPPQARREAPGAELDEARNAQTVSARLFEGNLKGVAQSGHAMSAEQKQALQSGLDDVFADAPPQARSAGAPMLYSANAAAGQGMADSDLWDMISDQIGKIKDNYLGVYENVVGQYTDFYKAFSDILSQMANWIKPGGDGNKVKLNVDALKAALEKLKKDFSLGDNLDNKKAVLFPAQSKDGGIQGGSESDARKWAKEMGLPDAPPPGFSCVQKAADGNWVVVVDMTPIDTMIRDVGALGSGTELELDNAKFQAWQSGFKAQEENLKNTLQTLTQKYSNANSLFDNLVKVLSSTISSCLETAKSFLQILEHHHHHH”: the protein production result is on record as “not failed”.

On to “MLKRASFVEVDTASLRHNFSAVKSIVPKDACVMAVVKANAYGAGAIKASEIFLQEGANYLGVATLDEALELRSHFSKTPILILGYSPNANASMLVDNDLSAMIFSLEQAEVFSQMALKSQKRLKVHIKIDTGMHRLGLEPNFKSIETIKKIRALKGLEIEGIFTHLSNADAKIKTHAKNQMKAFNAFLEQLLDQKIEFQYRHAYNSAGILSLCNGNENRLLNLYRPGIMLYGFYPSNGMKESCPTILKNVISLKAQIVQIRSVKKGEFIGYGEHFYTNEETLVGVLALGYADGLMRALGNRIQVAINNQLAPLIGKVCMDQCFVKLNNIQAKEGDEVILFGDKSAKANDASEIXALLNTIAYETISTLSKRLERVYI”, for which the protein production result is recorded as “failed”.

In the case of “MIEFTALDDLSLLRESVSLECKLAQGRDGKGALPDDFWPTYSAMANTDGGIVILGVRERKGQFEVAGIENPDKLRTELFNHLNNRQKVSVNLLRDEDVRAWPVEGKTLLVVEIPRARRQQRPVYLRGNPLGGHTYRRLHEGDRPLPDEDVKRMLAEQVEDSRDERILPGYGLDDLHLESLRAYRQLFANRDPSHPWNALADQAFLRQIGGWRQHRETGEAGLTLAGLLMFGQWSSITEAVPLCFLDYQERPADYATTVQWLDRIVPDGTWSGNVFDFYRRVVGKLTADIKVPFVLKGDIRQDDTPTHKALREALVNTLVHADYTGRISVLVVKEPAGFVLRNPGGLRVPAQQALQGGMSDCRNRTMQQMFLMIGLGERAGSGMSRIVHGWRDLGHELHLRESYEPHEHSVLEMFWAKGRGATLASESSEESSEESSEETGKKILHLLREEPSLTASALARRLQLTPRAIEKQLEHHHHHH”, the protein production entry is on record as “not failed”.
